# Assay results taken from patent US5102995A, “DNA encoding modified heparin cofactor II” (Washington University, priority 1989, dated 1992).
# Numbering of substitutions follows the chain as printed.
# B1: rHCII(Leu444 →Arg): modified heparin cofactor II: leucine at position 444 replaced by arginine in the 480 amino acid sequence; expressed in E. coli (protein, UniProt P05546 20-499, looked up, variant L444R)
# Heparin cofactor 2: GSKGPLDQLEKGGETAQSADPQWEQLNNKNLSMPLLPADFHKENTVTNDWIPEGEEDDDYLDLEKIFSEDDDYIDIVDSLSVSPTDSDVSAGNILQLFHGKSRIQRLNILNAKFAFNLYRVLKDQVNTFDNIFIAPVGISTAMGMISLGLKGETHEQVHSILHFKDFVNASSKYEITTIHNLFRKLTHRLFRRNFGYTLRSVNDLYIQKQFPILLDFKTKVREYYFAEAQIADFSDPAFISKTNNHIMKLTKGLIKDALENIDPATQMMILNCIYFKGSWVNKFPVEMTHNHNFRLNEREVVKVSMMQTKGNFLAANDQELDCDILQLEYVGGISMLIVVPHKMSGMKTLEAQLTPRVVERWQKSMTNRTREVLLPKFKLEKNYNLVESLKLMGIRMLFDKNGNMAGISDQRIAIDLFKHQGTITVNEEGTQATTVTTVGFMPRSTQVRFTVDRPFLFLIYEHRTSCLLFMGRVANPSRS
# modifications: expressed in E. coli
# B2: native rHCII: recombinant native heparin cofactor II expressed in E. coli; amino acid sequence identical to HCII purified from human plasma (protein, UniProt P05546 20-499, looked up)
# Heparin cofactor 2: B1 Heparin cofactor 2 with R444L
# B3: HCII: heparin cofactor II, a 65,600 dalton plasma glycoprotein, serpin that inhibits thrombin (protein, UniProt P05546 20-499, looked up)
# Heparin cofactor 2: B1 Heparin cofactor 2 with R444L
# Experiments:
# thrombin [1] = assay: Inhibition of thrombin by rHCII (chromogenic substrate Chromozym TH); assay type: biochemical, human; settings: for Second-order rate constant (k2) for inhibition of thrombin: No GAG, thrombin 15 nM, room temperature; for Increase in the rate constant for thrombin inhibition produced by dermatan sulfate: dermatan sulfate vs no GAG; for Increase in the rate constant for thrombin inhibition produced by heparin: heparin vs no GAG; for Maximum rate constant of thrombin inhibition relative to native HCII: in the presence of dermatan sulfate
# Method: (§1) Materials--Chromogenic substrates were purchased from the following sources: tosyl-Gly-Pro-Arg-p-nitroanilide (Chromozym TH), Boehringer Mannheim; N-succinyl-Ala-Ala-Pro-Phe-p-nitroanilde, Sigma; methoxycarbonyl cyclohexylglycyl-Gly-Arg-p-nitroanilde (Spectrozyme FXa), American Diagnostica; and Pro-Phe-Arg-p-nitroanilide (S-2302), KabiVitrum. Thrombin and HCII derived from human plasma were prepared and assayed by conventional procedures as previously described by Blinder et al., J. Biol. Chem. 264, 5128-5133 (1989). Human coagulation factor Xa was provided by Dr. George Broze, Jr., Washington University, St. Louis, Mo. Human chymotrypsin and plasma kallikrein were purchased from Sigma. Affinity purified rabbit anti-HCII antibodies were prepared and labeled with Na[^125 I] by conventional procedure as described previously by Blinder et al., Biochemistry 27, 752-759 (1988). Bovine lung heparin and porcine skin dermatan sulfate were purchased from Sigma; the dermatan sulfate was treated with nitrous acid to remove contaminating heparin prior to use [Teien et al., Thromb. Res. 8, 859-867 (1976)]. Heparin-Sepharose was prepared by commonly known procedure as described previously by Tollefsen et al., J. Biol. Chem. 257, 2162-2169 (1982).
# (§2) Inhibition of proteases by rHCII--Protease inhibition by rHCII was determined by incubating 90 μl of the partially purified rHCII (or the corresponding heparin-Sepharose fractions of a control lysate from cells transformed with pMON-5840) with 5 μl of the protease and 5 μl of either glycosaminoglycan or water in a disposable polystyrene cuvette at room temperature. Final concentrations of the proteases were as follows: thrombin, 15 nM; chymotrypsin, 21 nM; factor Xa, 16 nM; and kallikrein, 10 nM. After a specified period of time from 5 seconds (s) to 150 min, 300-500 μl of the appropriate chromogenic substrate was added, and the absorbance at 405 nm was recorded continuously for 100 s. The rate of change of absorbance was proportional to the concentration of active protease remaining in the incubation. The amounts added and concentrations of each substrate were as follows: Chromozym TH (thrombin), 500 μl, 0.1 mM; N-succinyl-Ala-Ala-Pro-Phe-p-nitroanilde (chymovtrypsin), 300 μl, 0.5 mM; Spectrozyme FXa (factor Xa), 400 μl, 0.125 mM; and S-2302 (kallikrein), 300 μl, 0.4 mM.
# (§3) Protease inhibition by rHCII in the absence of a glycosaminoglycan--The time courses of inhibition of thrombin, factor Xa, kallikrein, and chymotrypsin by […] rHCII(Leu444 →Arg) in the absence of a glycosaminoglycan are indicated in FIG. 3. The incubations were performed under pseudo-first-order conditions, such that the initial concentration of rHCII was greater than the concentration of protease. The pseudo-first-order rate constants (k1) for protease inhibition were determined by fitting the data to the following equation: k1 t=ln([P]0 /[P]t), in which [P]0 =initial protease activity and [P]t =protease activity at time=t. The second-order rate constants (k2) were then calculated by dividing k1 by the initial rHCII concentration. It was observed that rHCII(Leu444 →Arg) inhibits thrombin almost 100 times more rapidly than native rHCII in the absence of a glycosaminoglycan. Furthermore, rHCII(Leu444 →Arg) inhibits factor Xa and kallikrein, while inhibition of these proteases by native rHCII is undetectable.
# Inhibition of thrombin by rHCII in the presence of dermatan sulfate or heparin--The time course of inhibition of thrombin was determined in the presence of various concentrations of dermatan sulfate or heparin.
# chymotrypsin = assay: Inhibition of chymotrypsin by rHCII (chromogenic substrate); assay type: biochemical, human; settings: for Second-order rate constant (k2) for inhibition of chymotrypsin: No GAG, chymotrypsin 21 nM; for Inhibition of chymotrypsin (in words): absence of a glycosaminoglycan
# Method: as §1, §2, §3
# factor Xa = assay: Inhibition of factor Xa by rHCII (Spectrozyme FXa); assay type: biochemical, human; settings: for Second-order rate constant (k2) for inhibition of factor Xa: No GAG, factor Xa 16 nM; for Inhibition of factor Xa (in words): absence of a glycosaminoglycan
# Method: as §1, §2, §3
# plasma kallikrein = assay: Inhibition of kallikrein by rHCII (S-2302); assay type: biochemical, human; settings: for Second-order rate constant (k2) for inhibition of kallikrein: No GAG, kallikrein 10 nM; for Inhibition of kallikrein (in words): absence of a glycosaminoglycan
# Method: as §1, §2, §3
# thrombin [2] = settings: literature; cited from earlier work
molecule,measurement,setting,value
B1,Second-order rate constant (k2) for inhibition of thrombin,thrombin [1],103000 M⁻¹ s⁻¹
same,Second-order rate constant (k2) for inhibition of thrombin,thrombin [1]; listed as HCII(Leu444 →Arg),103000 M⁻¹ s⁻¹
same,Rate of thrombin inhibition relative to native HCII,thrombin [1]; absence of a glycosaminoglycan,~100 fold
same,Increase in the rate constant for thrombin inhibition produced by dermatan sulfate,thrombin [1],much smaller effect
same,Increase in the rate constant for thrombin inhibition produced by heparin,thrombin [1],minimal effect
same,Maximum rate constant of thrombin inhibition relative to native HCII,thrombin [1],about twice as fast
same,Maximum rate constant of thrombin inhibition relative to native HCII,thrombin [1]; listed as HCII(Leu444 →Arg),2 fold
same,Second-order rate constant (k2) for inhibition of chymotrypsin,chymotrypsin,< 170 M⁻¹ s⁻¹
same,Inhibition of chymotrypsin (in words),chymotrypsin,does not inhibit chymotrypsin at a detectable rate
same,Inhibition of chymotrypsin (in words),chymotrypsin; listed as HCII(Leu444 →Arg),more slowly
same,Second-order rate constant (k2) for inhibition of factor Xa,factor Xa,733 M⁻¹ s⁻¹
same,Inhibition of factor Xa (in words),factor Xa,inhibits
same,Inhibition of factor Xa (in words),factor Xa; listed as HCII(Leu444 →Arg),inhibited more rapidly
same,Effect of dermatan sulfate on rate of inhibition of factor Xa,factor Xa; dermatan sulfate,nor does it increase
same,Effect of heparin on inhibition of factor Xa,factor Xa; heparin 100 μg/ml,appears to protect
same,Second-order rate constant (k2) for inhibition of kallikrein,plasma kallikrein,2170 M⁻¹ s⁻¹
same,Inhibition of kallikrein (in words),plasma kallikrein,inhibits
same,Inhibition of kallikrein (in words),plasma kallikrein; listed as HCII(Leu444 →Arg),inhibited more rapidly
same,Effect of heparin on inhibition of kallikrein,plasma kallikrein; heparin 100 μg/ml,appears to protect
B2,Second-order rate constant (k2) for inhibition of thrombin,thrombin [1],1050 M⁻¹ s⁻¹
same,Second-order rate constant (k2) for inhibition of thrombin,thrombin [1]; listed as native HCII,1050 M⁻¹ s⁻¹
same,Increase in the rate constant for thrombin inhibition produced by dermatan sulfate,thrombin [1],~3500 fold
same,Increase in the rate constant for thrombin inhibition produced by heparin,thrombin [1],about 40 fold
same,Second-order rate constant (k2) for inhibition of chymotrypsin,chymotrypsin,3670 M⁻¹ s⁻¹
same,Effect of dermatan sulfate on rate of inhibition of chymotrypsin,chymotrypsin; dermatan sulfate,does not significantly increase
same,Second-order rate constant (k2) for inhibition of factor Xa,factor Xa,< 17 M⁻¹ s⁻¹
same,Inhibition of factor Xa (in words),factor Xa,undetectable
same,Second-order rate constant (k2) for inhibition of kallikrein,plasma kallikrein,< 50 M⁻¹ s⁻¹
same,Inhibition of kallikrein (in words),plasma kallikrein,undetectable
B3,Increase of the rate of thrombin inhibition by heparin and dermatan sulfate,thrombin [2],~ 1000 fold
